Results as given in article PMC5224480 (Nucleic Acids Research, 2016).

Target: T1, β subunit of Thermotoga maritima RNA polymerase (tmβ) (Thermotoga maritima, UniProt P29398 1-1263)
T1 sequence (looked up): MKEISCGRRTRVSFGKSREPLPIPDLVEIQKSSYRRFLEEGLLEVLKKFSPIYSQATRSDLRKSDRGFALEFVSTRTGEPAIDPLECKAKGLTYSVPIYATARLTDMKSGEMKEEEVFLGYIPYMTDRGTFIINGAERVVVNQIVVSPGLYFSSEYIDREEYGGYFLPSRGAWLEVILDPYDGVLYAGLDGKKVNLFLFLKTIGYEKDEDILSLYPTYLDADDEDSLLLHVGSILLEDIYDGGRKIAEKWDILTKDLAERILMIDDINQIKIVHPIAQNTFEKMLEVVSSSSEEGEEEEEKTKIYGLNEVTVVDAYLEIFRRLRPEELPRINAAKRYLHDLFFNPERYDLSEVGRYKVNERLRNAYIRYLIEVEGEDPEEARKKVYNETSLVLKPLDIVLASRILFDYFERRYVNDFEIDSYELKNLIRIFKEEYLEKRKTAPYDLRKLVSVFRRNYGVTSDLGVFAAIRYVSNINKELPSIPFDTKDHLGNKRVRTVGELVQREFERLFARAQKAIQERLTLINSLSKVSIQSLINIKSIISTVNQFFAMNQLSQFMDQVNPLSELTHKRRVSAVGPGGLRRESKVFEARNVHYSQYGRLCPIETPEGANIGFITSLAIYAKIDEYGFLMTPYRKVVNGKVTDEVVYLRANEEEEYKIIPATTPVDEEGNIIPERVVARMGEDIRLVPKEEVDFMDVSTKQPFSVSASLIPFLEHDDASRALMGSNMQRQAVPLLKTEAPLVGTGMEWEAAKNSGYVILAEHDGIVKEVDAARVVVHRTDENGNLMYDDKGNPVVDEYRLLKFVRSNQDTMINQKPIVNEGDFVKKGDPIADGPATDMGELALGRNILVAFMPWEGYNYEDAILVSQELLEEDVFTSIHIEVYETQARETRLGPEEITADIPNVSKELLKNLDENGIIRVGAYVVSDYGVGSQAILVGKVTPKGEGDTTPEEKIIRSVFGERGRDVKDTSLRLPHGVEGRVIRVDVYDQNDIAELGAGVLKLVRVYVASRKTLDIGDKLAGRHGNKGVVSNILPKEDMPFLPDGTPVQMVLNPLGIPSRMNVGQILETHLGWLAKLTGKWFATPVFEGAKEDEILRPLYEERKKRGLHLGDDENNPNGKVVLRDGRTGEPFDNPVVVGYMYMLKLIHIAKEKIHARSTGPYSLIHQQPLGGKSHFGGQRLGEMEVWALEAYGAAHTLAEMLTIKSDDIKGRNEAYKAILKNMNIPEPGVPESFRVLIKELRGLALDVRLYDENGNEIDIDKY
Experiment: NMR titration

B1: tmNusG-DII (residues 42-233 of tmNusG) (domain or fragment, Thermotoga maritima, UniProt P29397 42-233, looked up)
chain: EEVVLDATSPSERLILSPKAKLHVNNGKDVNKGDLIAEEPPIYARRSGVIVDVKNVRKIVVETIDRKYTKTYYIPESAGIEPGLRVGTKVKQGLPLSKNEEYICELDGKIVEIERMKKVVVQTPDGEQDVYYIPLDVFDRDRIKKGKEVKQGEMLAEARKFFAKVSGRVEVVDYSTRKEIRIYKTKRRKLFP
Does B1 bind?
Result: binds
